Reference: patent publication US20160279261A1 (Genentech, published 2016)

B1: CD33 CBI-PBD ADC2-2 (antibody, V domains shown)
VH: QVQLVQSGAEVKKPGSSVKVSCKASGGIFSNHAISWVRQAPGQGLEWMGGIIPIFGTANYAQKFQGRVTITADESTSTAFMELSSLRSEDTAVYYCAREWADVFDIWGQGTMVTVSS
VL: EIVLTQSPLSLPVTPGEPASISCRSSQSLLHSNGYNYLDWYLQKPGQSPQLLIYLGVNSVSGVPDRFSGSGSGTDFTLKISRVEAEDVGVYYCMQALQTPWTFGQGTKVEIK
B2: CD33 CBI-PBD ADC3-2 (antibody, V domains shown)
VH: B1 VH
VL: B1 VL

Biological target: CD33 (UniProt P20138 18-364, limits assumed)
Experiment: cell-based or functional assay

Chain of CD33 (P20138 18-364 limits assumed): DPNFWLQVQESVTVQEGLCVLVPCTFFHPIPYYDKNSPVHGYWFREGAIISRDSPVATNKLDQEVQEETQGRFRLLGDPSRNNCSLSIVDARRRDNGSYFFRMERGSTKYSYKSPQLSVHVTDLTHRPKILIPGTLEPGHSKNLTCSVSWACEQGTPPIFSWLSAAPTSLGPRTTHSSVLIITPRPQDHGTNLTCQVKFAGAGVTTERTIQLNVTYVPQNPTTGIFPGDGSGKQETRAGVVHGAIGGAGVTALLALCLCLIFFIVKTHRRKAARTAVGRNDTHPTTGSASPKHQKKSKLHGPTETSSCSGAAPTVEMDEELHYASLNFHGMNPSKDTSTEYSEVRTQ

Row | Binder | EOL-1 IC50 (in vitro cell proliferation assay) [µg/mL]
1 | B1 | 0.37
2 | B2 | 0.0181
